From doi:10.1101/2025.11.18.688960

Experiments:
Assay in all cases: fluorescence anisotropy
[1] = system: Protamine 1 EE (P1 S43ET45E) (mouse)
[2] = system: Protamine 1 AA (P1 S43AT45A) (mouse)
[3] = system: Protamine 1 WT (P1) (mouse)

99 bp fluorescent dsDNA
Kd [1]: 1100 nM
Kd [2]: 610 nM
Kd [3]: 430 nM
